Holding throughout (test): SPR, Biacore T200; target immobilized on CM5, His6-tagged Y variant injected; 1:1 Langmuir
Test [1] addresses T1, complement component 4 (C4) (UniProt P0C0L4 20-675; P0C0L4 680-1446; P0C0L4 1454-1744, limits assumed).
T1 construct: Natural C4 is a three-chain protein (alpha, beta, gamma) made from one precursor; Biotinylated for ELISA, amine-coupled to the chip for SPR; also called b-C4
The protocol:
(§1) Kinetic constants (kₐ and kd) and affinities (KD) were determined for Hiss-tagged Y variants using a Biacore T200 instrument (GE Healthcare). Target proteins C4, IL-6 and insulin, respectively, were immobilized in separate flow cells on the carboxylated dextran layer of different CM5 chip surfaces (GE Healthcare).
(§2) Immobilization was performed using amine coupling chemistry according to the manufacturer's protocol and PBS pH 7.4 supplemented with 0.1 Tween20 (PBST 0.1%) as running buffer. The ligand immobilization levels on the surfaces were 3280-8830 RU for C4, 495-1184 RU for IL-6, and 270-282 RU for insulin. One flow cell surface on each chip was activated and deactivated for use as blank during analyte injections. In the kinetic experiment, PBST 0.1% was used as running buffer at a flow rate of 30 μl/min. The analytes, i.e. Y variants, were each diluted in PBST 0.1 buffer at concentrations of 1000, 500, 100, 50 and 10 nM and injected for 5 min, followed by dissociation in running buffer for 3 min. After dissociation, the surfaces were regenerated with one injection of 30 μl 10 mM HCl. Kinetic constants were calculated from the sensorgrams using the Langmuir 1:1 model of Biacore T200 Evaluation software 2.0 (GE Healthcare).

Test [2] deals with T2, insulin (UniProt P01308 25-54; P01308 90-110, limits assumed).
T2 construct: Mature insulin has two chains (A and B) from one precursor; also called b-insulin
T2 sequence (P01308 25-54 limits assumed, form in doubt, chain 1 of 2): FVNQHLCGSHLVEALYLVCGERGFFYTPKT
T2 sequence (P01308 90-110 limits assumed, form in doubt, chain 2 of 2): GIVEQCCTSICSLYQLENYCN
The protocol:
as §1, §2

For test [3], the target named is T2, insulin. The protocol: as §1, §2
This is another data set of the same source.

Test [4] deals with T3, interleukin 6 (IL-6) (UniProt P05231 30-212).
T3 construct: also called b-IL-6
On the procedure: as §1, §2

Like-named read-outs stand apart in the source and are kept apart here.

T1 sequence (P0C0L4 20-675 limits assumed, chain 1 of 3): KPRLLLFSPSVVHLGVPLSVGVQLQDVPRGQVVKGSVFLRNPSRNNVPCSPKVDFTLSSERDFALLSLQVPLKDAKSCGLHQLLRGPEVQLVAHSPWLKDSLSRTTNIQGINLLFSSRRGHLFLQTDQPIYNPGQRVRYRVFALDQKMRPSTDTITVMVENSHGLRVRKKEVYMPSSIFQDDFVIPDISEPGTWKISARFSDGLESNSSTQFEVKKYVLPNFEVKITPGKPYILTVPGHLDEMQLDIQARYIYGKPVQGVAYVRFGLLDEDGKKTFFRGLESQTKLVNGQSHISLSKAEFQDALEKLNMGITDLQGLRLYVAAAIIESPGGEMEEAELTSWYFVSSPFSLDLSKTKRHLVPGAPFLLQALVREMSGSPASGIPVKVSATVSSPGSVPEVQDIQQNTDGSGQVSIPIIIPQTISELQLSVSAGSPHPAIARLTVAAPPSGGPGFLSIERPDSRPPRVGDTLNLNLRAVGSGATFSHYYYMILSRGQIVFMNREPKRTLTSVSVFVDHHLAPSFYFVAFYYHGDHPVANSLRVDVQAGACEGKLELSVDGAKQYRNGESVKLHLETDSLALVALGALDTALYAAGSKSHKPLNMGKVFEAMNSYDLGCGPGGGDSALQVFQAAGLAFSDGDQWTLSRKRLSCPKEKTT
T1 sequence (P0C0L4 680-1446 limits assumed, chain 2 of 3): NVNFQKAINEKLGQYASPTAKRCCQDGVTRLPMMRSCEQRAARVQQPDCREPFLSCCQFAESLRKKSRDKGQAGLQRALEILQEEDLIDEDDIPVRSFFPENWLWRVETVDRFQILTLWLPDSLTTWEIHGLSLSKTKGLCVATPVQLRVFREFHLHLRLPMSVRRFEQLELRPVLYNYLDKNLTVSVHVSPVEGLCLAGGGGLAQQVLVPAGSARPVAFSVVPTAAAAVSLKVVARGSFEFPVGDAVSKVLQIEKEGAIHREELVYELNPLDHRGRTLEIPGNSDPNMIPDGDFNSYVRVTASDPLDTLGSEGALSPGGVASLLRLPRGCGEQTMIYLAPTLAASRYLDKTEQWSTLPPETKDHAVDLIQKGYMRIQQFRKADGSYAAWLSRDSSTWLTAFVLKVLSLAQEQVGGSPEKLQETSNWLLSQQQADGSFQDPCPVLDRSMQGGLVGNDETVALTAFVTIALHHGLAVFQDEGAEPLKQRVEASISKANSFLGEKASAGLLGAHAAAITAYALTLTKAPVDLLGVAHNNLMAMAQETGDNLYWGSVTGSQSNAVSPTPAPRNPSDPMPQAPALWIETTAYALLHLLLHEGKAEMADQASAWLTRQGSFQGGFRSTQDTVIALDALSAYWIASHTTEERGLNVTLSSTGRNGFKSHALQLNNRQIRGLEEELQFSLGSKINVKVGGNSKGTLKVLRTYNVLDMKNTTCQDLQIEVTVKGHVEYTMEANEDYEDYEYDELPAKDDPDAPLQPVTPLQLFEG
T1 sequence (P0C0L4 1454-1744 limits assumed, chain 3 of 3): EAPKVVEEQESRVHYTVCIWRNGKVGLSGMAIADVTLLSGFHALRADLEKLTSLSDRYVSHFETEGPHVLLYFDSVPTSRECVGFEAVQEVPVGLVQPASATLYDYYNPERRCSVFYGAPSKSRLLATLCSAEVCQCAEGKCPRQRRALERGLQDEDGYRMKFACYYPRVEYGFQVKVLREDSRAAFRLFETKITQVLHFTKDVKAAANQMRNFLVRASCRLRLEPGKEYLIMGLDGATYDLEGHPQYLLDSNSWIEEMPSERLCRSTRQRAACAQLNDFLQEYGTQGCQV

B1: Y02303 (designed binder)
chain: MGSSHHHHHHGSSLAEAKEAAIAELDSKGVGAEEIKWIQNAWSVEGVQIMKQQILAELPA
notes: From library Ylib002Naive.I
On to B1, for which, in test [1], the Kd is 2200 nM, the koff came to 0.21 s⁻¹ and the kon was 96000 M⁻¹ s⁻¹.

B2: Y02337 (designed binder)
chain: MGSSHHHHHHGSSLAEAKEAAIAELDSKGVGAAEIKWIQHASTVEGVQGRKQQILAELPA
notes: From library Ylib002Naive.I
In test [1], B2 had a Kd of 1900 nM, a koff of 0.81 s⁻¹ and a kon of 420000 M⁻¹ s⁻¹.

B3: Y00032 (designed binder)
chain: MGSSHHHHHHGSSLAEAKEAAIAELDSKGVGAYQKSFIELAKSVEHVELLKEAILADLP
In the case of B3, the Kd in test [2] and in test [3] was 63 nM each time.

B4: Y00292 (designed binder)
chain: MGSSHHHHHHGSSLAEAKEAAIAELDSKGVGAYQKKFIELAKSVEHVQLLKQAILADLP
notes: Y00032 with S23K + E35Q + E39Q
Take B4: in test [2], the Kd was determined as 450 nM.

B5: Y00293 (designed binder)
chain: MGSSHHHHHHGSSLAEAKEAAIAELDSKGVGAYQIKFIELAKSVEHVQLLKQAILADLP
notes: Y00270 with E35Q + E39Q; also called Y000293
For B5, the affinity in test [2], expressed as Kd, was 490 nM.

B6: Y00294 (designed binder)
chain: MGSSHHHHHHGSSLAEAKEAAIAELDSKGVGAYQIKFIELAKSVEHVQLLKEAILKDLP
notes: Y00270 with E35Q + A43K
For B6, the Kd in test [2] was determined as 490 nM.

B7: Y00270 (designed binder)
chain: MGSSHHHHHHGSSLAEAKEAAIAELDSKGVGAYQIKFIELAKSVEHVELLKEAILADLP
notes: Y00032 with K22I + S23K
Turning to B7, the Kd in test [2] and in test [3] was 77 nM in each case.

B8: Y00295 (designed binder)
chain: MGSSHHHHHHGSSLAEAKEAAIAELDSKGVGAYQIKFIELAKSVEHVQLLKQAILKDLP
notes: Y00270 with E35Q + E39Q + A43K
Molecule B8 had a Kd in test [2] of 580 nM.

B9: Y00035 (designed binder)
chain: MGSSHHHHHHGSSLAEAKEAANAELDSYGVQANSIEAIEQGLFVEVVELLKELILAALPASGSVD
notes: From library Ylib001Naive.I
Take B9: binding in test [4] was characterised by a dissociation constant (Kd) of 360 nM.

B10: Y00296C (designed binder)
chain: MGSSHHHHHHTIDEWLLAEAKEAAIAELDSKGVGAYQIKFIQLAKSVEHVQLLKQAILADLP
notes: if it is only 46 residues long, TIDEWL must be put before it
For the molecule B10, the affinity in test [3], expressed as Kd, was 51 nM.

B11: Y00296b (designed binder)
chain: MGSSHHHHHHGSSLAEAKEAAIAELDSKGVGAYQIKFIQLAKSVEHVQLLKQAILADLPGYS
notes: if it is only 46 residues long, GYS must be added
In test [3], B11 yielded a Kd of 31 nM.

B12: Y02309 (designed binder)
chain: MGSSHHHHHHGSSLAEAKEAAIAELDSKGVGADLIKKIQKAESVEGVQFWKQEILATLPA
notes: From library Ylib002Naive.I
With B12, in test [1], the dissociation constant (Kd) turned out to be 70 nM, the koff stood at 0.0025 s⁻¹ and the on-rate (kon) was 36000 M⁻¹ s⁻¹.

B13: Y02330 (designed binder)
chain: MGSSHHHHHHGSSLAEAKEAAIAELDSKGVGAELIKKIQHAESVEGVQFWKQEILAYLPA
notes: From library Ylib002Naive.I
Consider B13, for which, in test [1], the dissociation constant Kd is 48 nM, the koff came out at 0.0046 s⁻¹ and the kon came out at 96000 M⁻¹ s⁻¹.

B14: Y00792 (designed binder)
chain: MGSSHHHHHHGSSLAEAKEAAIAELDSKGVGADLIKKIQQASSVEGVQFWKQEILAQLPA
notes: From library Ylib002Naive.I
As for B14, in test [1], the affinity, expressed as Kd, was 62 nM; the koff stood at 0.0017 s⁻¹; the kon was 27000 M⁻¹ s⁻¹.

B15: Y02358 (designed binder)
chain: MGSSHHHHHHGSSLAEAKEAAIAELDSKGVGADDIKLIQDAPSVEGVQEIKQFILAQLPA
notes: From library Ylib002Naive.I
In test [1], B15 returned a Kd of 16 nM, a koff of 0.0014 s⁻¹ and a kon of 90000 M⁻¹ s⁻¹.

B16: Y02444 (designed binder)
chain: MGSSHHHHHHGSSLAEAKEAAIAELDSKGVGAVEIKQIQEALLVEIVQLLKQAILAVLPA
notes: From library Ylib002Naive.I; also called Y002444
In test [4], B16 had a dissociation constant (Kd) of 61 nM, a koff of 0.0055 s⁻¹ and a kon of 90000 M⁻¹ s⁻¹.

B17: Y02415 (designed binder)
chain: MGSSHHHHHHGSSLAEAKEAAIAELDSKGVGAGDIKDIQDALLVEIVQLLKQAILAVLPA
notes: From library Ylib002Naive.I
In test [4], B17 returned a Kd of 160 nM, a koff of 0.0015 s⁻¹ and a kon of 9700 M⁻¹ s⁻¹.

B18: Y02447 (designed binder)
chain: MGSSHHHHHHGSSLAEAKEAAIAELDSKGVGAHGIKEIQDAILVEIVQLLKQAILAALPA
notes: From library Ylib002Naive.I
In test [4], B18 showed a Kd of 160 nM, a koff of 0.0017 s⁻¹ and a kon of 11000 M⁻¹ s⁻¹.

B19: Y02703 (designed binder)
chain: MGSSHHHHHHGSSLAEAKEAAIAELDSYGVGAVEIKQIEEALLVEIVQLLKQAILAVLPA
notes: Y02444 with K15Y + Q26E
Consider B19, for which, in test [4], the Kd came out at 120 nM, the koff was determined as 0.0025 s⁻¹ and the on-rate constant (kon) is 21000 M⁻¹ s⁻¹.

B20: Y02699 (designed binder)
chain: MGSSHHHHHHGSSLAEAKEAAIAELDSKGVGAVEIKQIEEALLVEIVQLLKQAILAVLPA
notes: Y02444 with Q26E
In test [4], B20 yielded a Kd of 200 nM, a koff of 0.0029 s⁻¹ and a kon of 19000 M⁻¹ s⁻¹.

B21: Y02495 (designed binder)
chain: MGSSHHHHHHGSSLAEAKEAAIAELDSKGVGAEEIKEIQGAMLVEIVQLLKQAILAVLPA
notes: From library Ylib002Naive.I
In test [4], B21 displayed a Kd of 240 nM, a koff of 0.0017 s⁻¹ and a kon of 7100 M⁻¹ s⁻¹.

B22: Y02698 (designed binder)
chain: MGSSHHHHHHGSSLAEAKEAAIAELDSYGVGAVEIKQIQEALLVEIVQLLKQAILAVLPA
notes: Y02444 with K15Y
In test [4], B22 had a Kd of 120 nM, a koff of 0.0033 s⁻¹ and a kon of 28000 M⁻¹ s⁻¹.

B23: Y02701 (designed binder)
chain: MGSSHHHHHHGSSLAEAKEAAIAELDSYGVGAGDIKDIQDALLVEIVQLLKQAILAVLPA
notes: Y02415 with K15Y
In test [4], B23 gave a Kd of 210 nM, a koff of 0.0036 s⁻¹ and an association rate constant (kon) of 21000 M⁻¹ s⁻¹.

B24: Y02702 (designed binder)
chain: MGSSHHHHHHGSSLAEAKEAAIAELDSKGVGAGDIKDIEDALLVEIVQLLKQAILAVLPA
notes: Y02415 with Q26E
In test [4], B24 returned a Kd of 440 nM, a koff of 0.007 s⁻¹ and a kon of 16000 M⁻¹ s⁻¹.

B25: Y02700 (designed binder)
chain: MGSSHHHHHHGSSLAEAKEAALAELDSKGVGAGDIKDIQDALLVEIVQLLKQAILAVLPA
notes: Y02415 with I9L
As for B25, in test [4], the Kd worked out at 62 nM, the koff came to 0.0025 s⁻¹ and the kon was determined as 46000 M⁻¹ s⁻¹.

B26: Y02697 (designed binder)
chain: MGSSHHHHHHGSSLAEAKEAALAELDSKGVGAVEIKQIQEALLVEIVQLLKQAILAVLPA
notes: Y02444 with I9L
Consider B26, for which, in test [4], the Kd was 150 nM, the koff turned out to be 0.009 s⁻¹ and the kon is 50000 M⁻¹ s⁻¹.

B27: Y02465 (designed binder)
chain: MGSSHHHHHHGSSLAEAKEAAIAELDSKGVGANHIKAIQHAQFVEIVQLLKQAILAVLPA
notes: From library Ylib002Naive.I
As for B27, in test [4], the Kd worked out at 270 nM, the koff was 0.0021 s⁻¹ and the kon worked out at 7500 M⁻¹ s⁻¹.

B28: Y02374 (designed binder)
chain: MGSSHHHHHHGSSLAEAKEAAIAELDSKGVGAAEIKRIQAAELVEIVQLLKQAILAVLPA
notes: From library Ylib002Naive.I
With B28, in test [4], the Kd was 120 nM, the koff was determined as 0.0017 s⁻¹ and the kon was determined as 14000 M⁻¹ s⁻¹.

The record behind these values is patent publication US20210047372A1 (Affibody, published 2021).
